Source: the Human Domainome abundance scans (Beltran et al. 2025)
± gives the uncertainty stated by the source.

B1: GAS2-like protein 1, residues 209 to 276; numbered along this chain, Q99501 (parent)
chain: DELVREILGRCTCPDQFPMIKVSEGKYRVGDSSLLIFVRVLRSHVMVRVGGGWDTLEHYLDKHDPCRC
B2: Ankyrin-1, residues 1405 to 1484; numbered along this chain, P16157 (parent)
chain: MKMAVISEHLGLSWAELARELQFSVEDINRIRVENPNSLLEQSVALLNLWVIREGQNANMENLYTALQSIDRGEIVNMLE

Variants of: B1
Test: abundance fitness (aPCA) (normalised: wild type 0, dead -1); higher = more abundant; growth selection in yeast, the domain comes from the species named
Conditions: Homo sapiens

Variant	abundance fitness
V47P	-0.888 ± 0.12
M19F	0.171 ± 0.071
M19H	-0.429 ± 0.13
M19C	-0.664 ± 0.24
M19W	-0.121 ± 0.079
M19E	-1.02 ± 0.36
S32R	-0.142 ± 0.04
S32H	-0.16 ± 0.074
S32W	-0.892 ± 0.19
L35T	0.072 ± 0.046
L35H	-0.247 ± 0.1
L35N	0.097 ± 0.085
L35W	-0.64 ± 0.091
L35A	-0.111 ± 0.051
F37N	0.31 ± 0.078
L3T	-0.526 ± 0.11
L3I	-0.129 ± 0.072
C11M	-0.771 ± 0.15
C11E	-1 ± 0.2
P18C	-0.512 ± 0.082
P18N	-0.15 ± 0.079
P18I	-0.524 ± 0.1
D15C	-0.188 ± 0.045
D15L	-0.058 ± 0.034
D15H	0.017 ± 0.082
D15V	0.054 ± 0.04

Variant	abundance fitness
D15P	-0.964 ± 0.21
H63T	-0.322 ± 0.16
H63Q	-0.555 ± 0.18
R42Y	-0.155 ± 0.069
V40E	-0.196 ± 0.4
V40H	-0.308 ± 0.14
V40G	-0.349 ± 0.084
V40S	-0.319 ± 0.091
V40C	-0.097 ± 0.074
V40K	0.129 ± 0.14
Q16Y	-0.848 ± 0.11
R48V	-0.784 ± 0.057
R48W	-0.366 ± 0.084
R48C	-0.224 ± 0.065
R48P	-0.539 ± 0.076
R48D	-0.256 ± 0.055
L34F	-0.124 ± 0.1
L34Q	0.238 ± 0.063
L34Y	-0.015 ± 0.074
L34R	-0.312 ± 0.043
T12D	-0.797 ± 0.15
T12V	-0.267 ± 0.041
T12K	-0.169 ± 0.1
C13G	-0.682 ± 0.078
C13F	-0.894 ± 0.13
G30E	-0.862 ± 0.12

Variant	abundance fitness
F17R	-0.865 ± 0.1
F17Y	0.098 ± 0.088
F17S	-0.925 ± 0.12
F17W	-0.741 ± 0.096
R39M	-0.172 ± 0.097
R39D	0.089 ± 0.11
R39I	-0.294 ± 0.068
D31M	-0.148 ± 0.057
D31F	-0.303 ± 0.21
D1N	-0.536 ± 0.13
D1H	-0.693 ± 0.24
V29E	-0.978 ± 0.26
V29M	-0.187 ± 0.05
R10E	-0.386 ± 0.1
R5N	0.194 ± 0.08
R5L	-0.178 ± 0.035
H44Q	0.103 ± 0.094
D64A	-1.03 ± 0.18
D64K	-1.12 ± 0.3
D64V	-0.927 ± 0.14
S43E	0.164 ± 0.12
S43F	-0.175 ± 0.14
R28C	-0.159 ± 0.091
R28L	-0.05 ± 0.04
R28Q	-0.265 ± 0.12
R28W	-0.403 ± 0.079

Variant	abundance fitness
R28A	-0.235 ± 0.053
S33Q	0.051 ± 0.067
D61G	-0.176 ± 0.041
D61Q	-0.123 ± 0.086
D61R	-0.212 ± 0.048
K26C	0.204 ± 0.18
K26T	0.149 ± 0.067
K26L	-0.145 ± 0.11
K26S	-0.075 ± 0.092
E57H	-0.669 ± 0.086
E57I	-0.669 ± 0.11
E57K	-0.598 ± 0.33
E57L	-0.873 ± 0.12
I7M	-0.273 ± 0.075
D54L	-0.346 ± 0.3
Y27I	-0.287 ± 0.42
Y27C	-0.874 ± 0.26
E2S	-0.06 ± 0.089
E2A	-0.263 ± 0.057
E2D	0.149 ± 0.083
V45I	-0.076 ± 0.055
L41Q	0.13 ± 0.06
L41D	0.011 ± 0.059
L41A	-0.148 ± 0.045
L41V	0.149 ± 0.029
K21R	0.01 ± 0.036

Variant	abundance fitness
K21A	-0.748 ± 0.14
K21H	-0.426 ± 0.085
P65S	-0.898 ± 0.11
P65K	-0.734 ± 0.12
P65W	-0.857 ± 0.14
L8T	-0.414 ± 0.058
G50E	0.011 ± 0.061
G50Q	-0.017 ± 0.055
G50K	-0.03 ± 0.05
Y59T	-0.862 ± 0.17
Y59R	-0.886 ± 0.097
Y59M	-0.767 ± 0.13
V22I	-0.035 ± 0.081
V22F	-0.518 ± 0.13
V38R	-0.745 ± 0.15
V38Q	-0.837 ± 0.42
G52C	-0.071 ± 0.066
E6G	-0.347 ± 0.074
E6M	-0.309 ± 0.069
V4E	-0.463 ± 0.071
E24D	0.062 ± 0.12
E24A	-0.099 ± 0.085
E24T	-0.579 ± 0.47
V49C	-0.069 ± 0.12
V49K	-0.324 ± 0.089
G25C	-0.236 ± 0.098

Variant	abundance fitness
G25L	-0.914 ± 0.091
G25E	-0.345 ± 0.079
G25Q	-0.13 ± 0.08
R67K	-0.616 ± 0.12
R67M	-0.899 ± 0.13
R67I	-0.638 ± 0.21
R67G	-0.945 ± 0.19
C68H	0.058 ± 0.086
P14V	-0.213 ± 0.05
P14F	-0.509 ± 0.17
T55D	-0.431 ± 0.081
T55N	-0.185 ± 0.08
I36R	-0.542 ± 0.1
I36K	-0.398 ± 0.18
C66D	-0.502 ± 0.16
C66P	-0.763 ± 0.15
C66R	-0.797 ± 0.093
C66F	-0.928 ± 0.21
M46D	-0.931 ± 0.37
L60I	-0.531 ± 0.095
L60F	-0.864 ± 0.5
L60D	-0.584 ± 0.12

Variants of: B2
Test: as above
Conditions: Homo sapiens

Variant	abundance fitness
R53K	-0.17 ± 0.08
L17G	-0.972 ± 0.12
L17S	-0.853 ± 0.14
L17C	-0.81 ± 0.2
M3N	-0.748 ± 0.47
M3K	-0.155 ± 0.13
M3F	0.105 ± 0.097
M3H	-0.233 ± 0.26
L39P	0.058 ± 0.12
L39H	-0.42 ± 0.26
L39C	0.066 ± 0.14
V33D	-0.031 ± 0.14
V33R	0.021 ± 0.038
S7W	-0.691 ± 0.14
S7Q	-0.389 ± 0.12
N37L	-0.199 ± 0.074
N37D	-0.023 ± 0.13
Q68P	-0.767 ± 0.2
Q68E	-0.102 ± 0.082
Q68T	-0.256 ± 0.11
Q68S	-0.199 ± 0.062
Q68C	-0.235 ± 0.17
A15S	0.037 ± 0.06

Variant	abundance fitness
Q56P	-0.052 ± 0.08
Q56H	-0.213 ± 0.26
E61V	-0.523 ± 0.5
S13Y	-0.504 ± 0.15
L67A	-0.895 ± 0.22
L67H	-0.911 ± 0.34
D71T	-0.385 ± 0.15
D71F	-0.627 ± 0.2
D71E	0.075 ± 0.075
D71W	-0.827 ± 0.14
L49W	-0.359 ± 0.074
L49G	-0.11 ± 0.046
L49N	-0.256 ± 0.12
L49R	-0.088 ± 0.049
L49E	-0.055 ± 0.078
F23M	-0.693 ± 0.14
F23C	-0.51 ± 0.16
F23E	-0.911 ± 0.35
F23P	-0.918 ± 0.21
Y64G	-0.274 ± 0.056
Y64A	-0.494 ± 0.12
Y64W	-0.531 ± 0.084
I75T	-0.342 ± 0.13

Variant	abundance fitness
I75L	-0.199 ± 0.08
I70P	-0.8 ± 0.19
I70W	-0.99 ± 0.28
I70H	-0.404 ± 0.45
I70C	-0.384 ± 0.094
I70Y	-0.152 ± 0.25
I70F	-0.693 ± 0.2
W14V	-0.67 ± 0.13
W14S	-0.89 ± 0.14
W14D	-0.907 ± 0.28
W14G	-0.895 ± 0.12
M78F	-0.146 ± 0.11
M78T	0.085 ± 0.091
M78V	0.043 ± 0.061
M78S	-0.121 ± 0.066
M78A	-0.003 ± 0.061
W50Y	0.015 ± 0.17
W50C	-0.71 ± 0.36
W50G	-1.07 ± 0.16
N29W	-0.148 ± 0.051
N29K	0.021 ± 0.1
N29R	-0.007 ± 0.048
N29P	-0.952 ± 0.22

Variant	abundance fitness
N29Q	-0.041 ± 0.077
N29L	-0.127 ± 0.059
L46W	-0.638 ± 0.096
H9M	-0.302 ± 0.12
H9S	-0.868 ± 0.39
L40M	-0.067 ± 0.081
L40N	-0.372 ± 0.11
L40T	-0.081 ± 0.085
E80D	0.164 ± 0.071
E80H	-0.06 ± 0.11
E80C	-0.092 ± 0.099
E80R	-0.17 ± 0.13
R72L	-0.581 ± 0.087
R72Q	-0.275 ± 0.1
E41T	-0.184 ± 0.072
L79A	0.002 ± 0.064
L79D	-0.54 ± 0.32
R30T	-0.226 ± 0.086
R30K	0.054 ± 0.12
R30A	-0.215 ± 0.059
R30Q	-0.049 ± 0.072
E20P	-0.996 ± 0.17
E20H	-0.12 ± 0.1

Variant	abundance fitness
E20A	-0.136 ± 0.059
E20M	-0.077 ± 0.12
E20G	-0.49 ± 0.068
E20Y	-0.286 ± 0.12
N62T	0.211 ± 0.1
S24T	-0.191 ± 0.088
S38M	-0.353 ± 0.12
E8Q	0.067 ± 0.17
E8H	-0.398 ± 0.18
E8C	-0.624 ± 0.18
E8M	-0.426 ± 0.13
N48F	-0.896 ± 0.24
N48W	-0.834 ± 0.2
A18G	-0.075 ± 0.048
A18M	-0.827 ± 0.27
N35F	-0.219 ± 0.2
N35G	-0.858 ± 0.21
N35T	-0.3 ± 0.12
M60E	-0.42 ± 0.18
M60C	-0.564 ± 0.23
A58W	-0.062 ± 0.077
A58V	0.124 ± 0.064
A58Y	-0.065 ± 0.22

Variant	abundance fitness
A58K	0.046 ± 0.057
E16G	0.018 ± 0.047
E16F	-0.23 ± 0.15
I31C	-0.872 ± 0.2
I31V	-0.192 ± 0.057
I31Y	-0.448 ± 0.41
S69M	-0.133 ± 0.089
S69Q	-0.137 ± 0.11
V51S	0.128 ± 0.051
V51M	0.026 ± 0.11
G73E	-0.24 ± 0.064
G73T	-0.306 ± 0.054
G73C	-0.272 ± 0.096
E26A	-0.2 ± 0.066
E26H	-0.113 ± 0.2
E26Y	0.064 ± 0.15
I28M	-0.341 ± 0.13
N77V	-0.078 ± 0.11
N77S	-0.005 ± 0.073
N77T	0.041 ± 0.082
V44N	0.296 ± 0.084
V44D	0.112 ± 0.095
V44K	0.327 ± 0.12

Variant	abundance fitness
G55P	-0.69 ± 0.41
V25N	0.114 ± 0.14
V25D	-0.05 ± 0.1
V25M	-0.056 ± 0.12
L10R	-0.895 ± 0.16
G11N	-0.161 ± 0.21
G11A	-0.47 ± 0.079
G11Y	-0.481 ± 0.28
A4S	-0.259 ± 0.083
L47G	-0.521 ± 0.066
P36M	-0.064 ± 0.34
S43P	-0.721 ± 0.13
S43M	-1.05 ± 0.32
A66D	-0.884 ± 0.15
A66P	-0.1 ± 0.066
K2T	-0.254 ± 0.084
K2H	-0.271 ± 0.17
A45Y	-0.565 ± 0.15
A45F	-0.65 ± 0.14
Q22Y	-0.187 ± 0.15
Q22S	0.018 ± 0.055
Q22H	-0.413 ± 0.19
R32M	-0.35 ± 0.13

Variant	abundance fitness
E74D	0.16 ± 0.16
E74N	-0.478 ± 0.17
Q42P	-1.04 ± 0.23
Q42L	-0.863 ± 0.11
D27C	-0.063 ± 0.15
D27M	-0.213 ± 0.14
D27F	-0.436 ± 0.2
T65N	-0.004 ± 0.14
N57G	0.017 ± 0.058
N57F	-0.437 ± 0.19
N57Y	0.093 ± 0.21
N59A	-0.047 ± 0.078
N59I	-0.314 ± 0.2
N59W	-0.371 ± 0.056
L21R	-0.923 ± 0.26
L21A	-1.02 ± 0.28
V76W	-0.388 ± 0.044
V76K	-0.283 ± 0.14
V76F	-0.528 ± 0.27
E34N	-0.134 ± 0.35
E34S	-0.144 ± 0.12
